Test results taken from publication PMC11262183, “Arid5a uses disordered extensions of its core ARID domain for distinct DNA- and RNA-recognition and gene regulation”.

How the values were obtained:
[1] = biological target: T1, Arid5a ARID (Homo sapiens) (UniProt Q03989); assay: pulldown; details: 1 and 5 uM protein; 25 mM Tris pH 7.5, 150 mM KCl, 3 mM MgCl2
T1 sequence: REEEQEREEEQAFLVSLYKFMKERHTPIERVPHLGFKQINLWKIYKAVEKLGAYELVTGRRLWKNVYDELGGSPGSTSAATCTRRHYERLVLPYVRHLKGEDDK

Arid5a ARID37-183 [2] = biological target: T2, Arid5a ARID37-183 (human, UniProt Q03989 37-183); assay: EMSA; 10 mM MgCl2, yeast tRNA; range over WT, var1, var2, var4; 20 mM Bis-Tris pH 6.5, 150 mM NaCl, 2 mM TCEP, 0.02% NaN3; NMR at 298 K; EMSA plus 10 mM MgCl2 and 0.6 ug yeast tRNA per 20 ul, 22-24 C; details: protein: recombinant; tags: cloned in pET-Trx1a (TEV site); label: 5'-fluorescein on strand 1; blunt
T2 sequence: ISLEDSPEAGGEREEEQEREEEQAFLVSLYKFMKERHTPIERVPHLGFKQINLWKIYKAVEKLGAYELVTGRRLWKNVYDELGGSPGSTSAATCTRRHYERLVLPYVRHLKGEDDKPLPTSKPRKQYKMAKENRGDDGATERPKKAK

Arid1a extended ARID [3] = biological target: T3, Arid1a extended ARID (human, UniProt O14497 999-1132); assay: EMSA; 20 mM Bis-Tris pH 6.5, 150 mM NaCl, 2 mM TCEP, 0.02% NaN3; NMR at 298 K; EMSA plus 10 mM MgCl2 and 0.6 ug yeast tRNA per 20 ul, 22-24 C; details: protein: recombinant; tags: cloned in pET-Trx1a (TEV site); label: 5'-fluorescein on strand 1; blunt
T3 sequence (O14497 999-1132): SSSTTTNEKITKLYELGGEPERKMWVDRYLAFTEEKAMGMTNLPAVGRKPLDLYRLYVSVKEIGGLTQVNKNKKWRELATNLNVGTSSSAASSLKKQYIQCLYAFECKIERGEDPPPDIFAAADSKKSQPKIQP

ARID49-152 K85A/Q86A = biological target: T4, ARID49-152 K85A/Q86A (human, UniProt Q03989 49-152, K85A;Q86A); assay: NMR; 2-fold DNA; 20 mM Bis-Tris pH 6.5, 150 mM NaCl, 2 mM TCEP, 0.02% NaN3; NMR at 298 K; EMSA plus 10 mM MgCl2 and 0.6 ug yeast tRNA per 20 ul, 22-24 C; details: protein: recombinant; tags: cloned in pET-Trx1a (TEV site); blunt
T4 sequence: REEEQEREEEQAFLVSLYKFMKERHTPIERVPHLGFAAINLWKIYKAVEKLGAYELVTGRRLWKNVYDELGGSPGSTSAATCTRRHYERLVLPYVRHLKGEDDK

Arid1a extended ARID [4] = biological target: T3, Arid1a extended ARID; assay: EMSA; similar affinity to AT; 20 mM Bis-Tris pH 6.5, 150 mM NaCl, 2 mM TCEP, 0.02% NaN3; NMR at 298 K; EMSA plus 10 mM MgCl2 and 0.6 ug yeast tRNA per 20 ul, 22-24 C; details: protein: recombinant; tags: cloned in pET-Trx1a (TEV site); label: 5'-fluorescein on strand 1; blunt
Arid5a ARID37-183 [5] = biological target: T2, Arid5a ARID37-183; assay: NMR; 3.5-fold RNA; stronger than core; 20 mM Bis-Tris pH 6.5, 150 mM NaCl, 2 mM TCEP, 0.02% NaN3; NMR at 298 K; EMSA plus 10 mM MgCl2 and 0.6 ug yeast tRNA per 20 ul, 22-24 C; details: protein: recombinant; tags: cloned in pET-Trx1a (TEV site); hairpin
Arid5a ARID49-152 = biological target: T5, Arid5a ARID49-152 (human, UniProt Q03989 49-152); assay: NMR; 2-fold RNA; 20 mM Bis-Tris pH 6.5, 150 mM NaCl, 2 mM TCEP, 0.02% NaN3; NMR at 298 K; EMSA plus 10 mM MgCl2 and 0.6 ug yeast tRNA per 20 ul, 22-24 C; details: protein: recombinant; tags: cloned in pET-Trx1a (TEV site)
T5 sequence: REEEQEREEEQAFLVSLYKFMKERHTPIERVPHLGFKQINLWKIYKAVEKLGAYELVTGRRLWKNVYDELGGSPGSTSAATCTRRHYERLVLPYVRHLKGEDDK

Arid5a ARID37-183 [6] = biological target: T2, Arid5a ARID37-183; assay: NMR; 0.1-fold RNA; 20 mM Bis-Tris pH 6.5, 150 mM NaCl, 2 mM TCEP, 0.02% NaN3; NMR at 298 K; EMSA plus 10 mM MgCl2 and 0.6 ug yeast tRNA per 20 ul, 22-24 C; details: protein: recombinant; tags: cloned in pET-Trx1a (TEV site)

## AAAAAAA [7-mer AAAAAAA]
[1]
  binding signal (RBNS z-score of enrichment R): 3.68

## AAAAAUA [7-mer AAAAATA]
[1]
  binding signal (RBNS z-score of enrichment R): 3.52

## AAAUAUA [7-mer AAATATA]
[1]
  binding signal (RBNS z-score of enrichment R): 4.03

## AACAGGC [7-mer AACAGGC]
[1]
  binding signal (RBNS z-score of enrichment R): 4.87

## AAUAUAA [7-mer AATATAA]
[1]
  binding signal (RBNS z-score of enrichment R): 3.73

## ACAGGCA [7-mer ACAGGCA]
[1]
  binding signal (RBNS z-score of enrichment R): 11.6

## AGGCAGA [7-mer AGGCAGA]
[1]
  binding signal (RBNS z-score of enrichment R): 6.46

## AGGCAGC [7-mer AGGCAGC]
[1]
  binding signal (RBNS z-score of enrichment R): 7.71

## AGGCAGG [7-mer AGGCAGG]
[1]
  binding signal (RBNS z-score of enrichment R): 8.18

## AGGCAGU [7-mer AGGCAGT]
[1]
  binding signal (RBNS z-score of enrichment R): 6.38

## CAGGCAA [7-mer CAGGCAA]
[1]
  binding signal (RBNS z-score of enrichment R): 6.65

## CAGGCAG [7-mer CAGGCAG]
[1]
  binding signal (RBNS z-score of enrichment R): 13

## CAGGCAU [7-mer CAGGCAT]
[1]
  binding signal (RBNS z-score of enrichment R): 4.61

## GCAGGCA [7-mer GCAGGCA]
[1]
  binding signal (RBNS z-score of enrichment R): 5.88

## UACAGGC [7-mer TACAGGC]
[1]
  binding signal (RBNS z-score of enrichment R): 5.55

B1: FAM-13merAT (dsDNA)
DNA 1: GCACAATATAACG
DNA 2: CGTTATATTGTGC
Arid5a ARID37-183 [2]
  Kd: ~1360 nM
Arid1a extended ARID [3]
  binding result: binds

B2: 13merAT_var1 (dsDNA)
DNA 1: GCGCAATATAGCG
DNA 2: CGCTATATTGCGC
Arid5a ARID37-183 [2]
  Kd: ~1360 nM

B3: 13merAT (dsDNA)
DNA 1: GCACAATATAACG
DNA 2: CGTTATATTGTGC
ARID49-152 K85A/Q86A
  binding result: binds

B4: 13merAT_var2 (dsDNA)
DNA 1: GCACGGTATAACG
DNA 2: CGTTATACCGTGC
Arid5a ARID37-183 [2]
  Kd: ~1360 nM

B5: FAM-13merGC (dsDNA)
DNA 1: GCCCCGCCCGCCG
DNA 2: CGGCGGGCGGGGC
Arid1a extended ARID [4]
  binding result: binds

## CACACCGUUCUAGGUGCUG (structured_RNA) [19mer_ADE (Ox40 ADE)]
Arid5a ARID37-183 [5]
  binding result: binds

B6: 13merAT_var4 (dsDNA)
DNA 1: GCACAATACGACG
DNA 2: CGTCGTATTGTGC
Arid5a ARID37-183 [2]
  Kd: ~1360 nM

## ACAGGCAGG (ssRNA) [RBNS-9mer-fw]
Arid5a ARID49-152
  binding result: binds

## CCUGCCUGU (ssRNA) [RBNS-9mer-rev]
Arid5a ARID49-152
  binding result: binds

B7: Il-6 3'UTR 129 nt (structured_RNA)
RNA: GGCACAGAACUUAUGUUGUUCUCUAUGGAGAACUAAAAGUAUGAGCGUUAGGACACUAUUUUAAUUAUUUUUAAUUUAUUAAUAUUUAAAUAUGUGAAGCUGAGUUAAUUUAUGUAAGUCAUAUUUAUA
Arid5a ARID37-183 [6]
  binding result: binds
